In patent EP4785962A1, “ANTIBODY-DRUG CONJUGATE TARGETING TROP2, AND PREPARATION METHOD AND USE THEREFOR” (priority 2023, dated 2025):

Legend:
[1] = once every three weeks for a total of 3 times; WO2020240467A1; cited from earlier work
[2] = test system: human pancreatic cancer cell line BxPC-3; assay: In vitro cytotoxicity test, BxPC3 cells, 6 days; assay type: cell-based; conditions: BxPC3, 6 days of culture
Procedure: 10% FBS (SH30406.05, HYCLONE) was added to RPMI 1640 (22400-071, Gibco), and the mixture was mixed well to prepare a BxPC3 cell (ATCC) growth medium. BxPC3 or FaDu cells were adjusted to a concentration of 50000 cells/mL with a growth medium, seeded into a 96-well white-bottom plate (167008, NUNC) at 50 µL per well (2500 cells/well), and incubated overnight in an incubator at 37 °C. The antibody was diluted with growth medium and serially diluted 5-fold from 200 nM (2×) to obtain 9 gradients, with the final concentration being […]. The diluted antibody-drug conjugate or control was added at 50 µL/well, and the total volume was 100 µL. […] The cell pellet was fully lysed by shaking on a plate shaker for 5 min, and the luminescence signal was stabilized by standing at room temperature for 10 min. The culture plate was tested on a microplate reader (spectra MAX i3x, Molecular Divices), the […] were taken, and the cell viability was calculated. […]
The cell proliferation inhibition rate after 6 days of culture was calculated using the following formula.
Cell proliferation inhibition rate (%) = […], where a: the average value of experimental sample-added wells after 6 days of culture; b: the average value of control medium-added wells after 6 days of culture. The data were fitted by GraphPad Prism and the IC50 of the drug was calculated (Table 4).

[3] = test system: pancreatic cancer cell line BxPC3; assay: Mouse xenograft tumor model BxPC3; assay type: in vivo, immunodeficient mice CB17-SCID; conditions: low dose (3 mg/kg), intraperitoneal, single administration
Procedure: • 1. Mice: immunodeficient mice CB17-SCID (Vital River) aged 6-8 weeks were placed in an SPF experimental environment for 3-5 days before the experiment to better adapt to the current living environment. In all experiments, the long and short diameters of the tumor were measured twice a week using a vernier caliper, and the tumor volume (mm^3) was calculated from the measured data. The calculation formula is as follows: Tumor volume(mm^3) = 0.5 × long diameter(mm) × short diameter(mm) × short diameter(mm) [formula] • 2. Human gastric cancer cell line NCI-N87 (ATCC) cells were resuspended in 1× PBS (Gibco, 10010049) at an appropriate concentration, and the tumor cells were implanted subcutaneously in the right abdomen of the mice at an inoculation amount of 2×10^6 /mouse. When the tumor volume reached 150-200 mm^3, the mice were divided into groups such that the average initial administration volume of each group was substantially the same. After grouping, different doses of antibody-drug conjugates hRs7-DXd, hRS7-MB3 and hTINA1-DXd, or control-drug conjugates IgG-MB3, IgG-DXd and IgG control were administered by intraperitoneal injection. […] Compared with hRS7-DXd, hRS7-MB3 has a stronger tumor inhibitory effect. […] The growth status of the mice was observed, and the changes in tumor volume of the mice were measured. […]

B1: hTINA1-DXd: control ADC: antibody hTINA1 conjugated with Linker-DXd, average DAR 4.3; TROP2-ADC from Daiichi Sankyo (conjugate, chains of the INN, looked up)
VH: QVQLVQSGAEVKKPGASVKVSCKASGYTFTTAGMQWVRQAPGQGLEWMGWINTHSGVPKYAEDFKGRVTISADTSTSTAYLQLSSLKSEDTAVYYCARSGFGSSYWYFDVWGQGTLVTVSS
VL: DIQMTQSPSSLSASVGDRVTITCKASQDVSTAVAWYQQKPGKAPKLLIYSASYRYTGVPSRFSGSGSGTDFTLTISSLQPEDFAVYYCQQHYITPLTFGQGTKLEIK
modifications: deruxtecan (Linker-DXd), DAR 4.3
notes: control ADC: antibody hTINA1 conjugated with Linker-DXd, average DAR 4.3; TROP2-ADC from Daiichi Sankyo
- HNSTD [1]: 30 mg/kg
- IC50 [2]: 0.55 nM
- tumor inhibitory effect [3]: equivalent tumor inhibitory effects
